One protein from US20050261179 can be followed below.

Series [1] has as its target T1, adrenomedullin (synthetic human AM).
T1 chain: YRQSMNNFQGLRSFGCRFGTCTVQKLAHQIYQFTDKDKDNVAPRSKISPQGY

Series [2] concerns the target T2, human complement factor H, P08603.
T2 chain: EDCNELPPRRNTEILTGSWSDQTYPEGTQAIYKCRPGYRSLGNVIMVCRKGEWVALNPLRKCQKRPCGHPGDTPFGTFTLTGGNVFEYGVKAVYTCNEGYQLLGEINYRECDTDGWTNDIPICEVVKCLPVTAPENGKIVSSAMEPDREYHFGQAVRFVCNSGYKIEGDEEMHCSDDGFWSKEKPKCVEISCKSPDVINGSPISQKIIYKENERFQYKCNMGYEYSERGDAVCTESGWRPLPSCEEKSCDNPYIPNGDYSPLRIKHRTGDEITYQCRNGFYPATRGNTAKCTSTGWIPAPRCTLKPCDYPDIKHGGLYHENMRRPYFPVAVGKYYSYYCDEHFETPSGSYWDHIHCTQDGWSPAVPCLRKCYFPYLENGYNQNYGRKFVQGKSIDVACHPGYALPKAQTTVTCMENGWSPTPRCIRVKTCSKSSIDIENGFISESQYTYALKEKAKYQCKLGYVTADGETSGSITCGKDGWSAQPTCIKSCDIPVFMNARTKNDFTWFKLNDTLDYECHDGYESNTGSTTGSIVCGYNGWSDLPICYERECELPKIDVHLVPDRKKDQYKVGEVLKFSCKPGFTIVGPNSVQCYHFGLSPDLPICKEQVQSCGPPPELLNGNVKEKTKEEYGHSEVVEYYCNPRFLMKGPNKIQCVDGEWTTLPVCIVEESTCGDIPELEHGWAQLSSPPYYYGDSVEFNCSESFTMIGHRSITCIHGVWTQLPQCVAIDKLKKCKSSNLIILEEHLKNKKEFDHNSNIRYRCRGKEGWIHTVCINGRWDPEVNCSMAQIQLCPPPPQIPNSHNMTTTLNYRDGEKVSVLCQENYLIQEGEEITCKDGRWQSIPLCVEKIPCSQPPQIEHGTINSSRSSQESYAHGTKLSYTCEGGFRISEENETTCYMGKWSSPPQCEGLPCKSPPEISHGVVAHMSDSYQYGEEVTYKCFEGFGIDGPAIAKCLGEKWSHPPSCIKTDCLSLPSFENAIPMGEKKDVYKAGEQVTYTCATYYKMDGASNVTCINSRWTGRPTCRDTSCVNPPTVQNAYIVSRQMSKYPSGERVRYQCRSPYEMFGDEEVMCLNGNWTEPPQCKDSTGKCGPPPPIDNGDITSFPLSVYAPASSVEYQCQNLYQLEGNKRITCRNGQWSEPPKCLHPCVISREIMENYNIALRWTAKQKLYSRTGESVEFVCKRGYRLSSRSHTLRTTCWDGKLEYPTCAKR

B1: human recombinant MMP-2 (protein)
chain: YNFFPRKPKWDKNQITYRIIGYTPDLDPETVDDAFARAFQVWSDVTPLRFSRIHDGEADIMINFGRWEHGDGYPFDGKDGLLAHAFAPGTGVGGDSHFDDDELWTLGEGQVVRVKYGNADGEYCKFPFLFNGKEYNSCTDTGRSDGFLWCSTTYNFEKDGKYGFCPHEALFTMGGNAEGQPCKFPFRFQGTSYDSCTTEGRTDGYRWCGTTEDYDRDKKYGFCPETAMSTVGGNSEGAPCVFPFTFLGNKYESCTSAGRSDGKMWCATTANYDDDRKWGFCPDQGYSLFLVAAHEFGHAMGLEHSQDPGALMAPIYTYTKNFRLSQDDIKGIQELYGASPDIDLGTGPTPTLGPVTPEICKQDIVFDGIAQIRGEIFFFKDRFIWRTVTPRDKPMGPLLVATFWPELPEKIDAVYEAPQEEKAVFFAGNEYWIYSASTLERGYPKPLTSLGLPPDVQRVDAAFNWSKNKKTYIFAGDKFWRYNEVKKKMDPGFPKLIADAWNAIPDNLDAVVDLQGGGHSYFFKGAYYLKLENQSLKSVKFGSIKSDWLGC
As to B1, in series [1], the “AM fragments generated by MMP-2 digestion (mass spectrometry of HPLC peaks)” value is “These include AM(8-52), AM(11-52), AM(23-52), AM(29-52), AM(11-28), and AM(11-22)”; the “degradation of synthetic AM (gel, HPLC, mass spectrometry)” value was “MMP-2 rapidly cleaves synthetic AM in a time-dependent manner”. In series [2], the “degradation of factor H (gel)” value was “is not a substrate for either one of the MMPs”.
